In patent US7094548B2, “Purification of recombinant proteins fused to multiple epitopes” (Sigma-Aldrich Co., priority 1999, dated 2006):

B1: 3XBAP: triple FLAG version of bacterial alkaline phosphatase expressed in E. coli from p3XFLAG-ATS-BAP and purified on M2 affinity gel (protein)
chain: MDYKDHDGDYKDHDIDYKDDDDKMPVLENRAAQGDITAPGGARRLTGDQTAALRDSLSDKPAKNIILLIGDGMGDSEITAARNYAEGAGGFFKGIDALPLTGQYTHYALNKKTGKPDYVTDSAASATAWSTGVKTYNGALGVDIHEKDHPTILEMAKAAGLATGNVSTAELQDATPAALVAHVTSRKCYGPSATSEKCPGNALEKGGKGSITEQLLNARADVTLGGGAKTFAETATAGEWQGKTLREQAQARGYQLVSDAASLNSVTEANQQKPLLGLFADGNMPVRWLGPKATYHGNIDKPAVTCTPNPQRNDSVPTLAQMTDKAIELLSKNEKGFFLQVEGASIDKQDHAANPCGQIGETVDLDEAVQRALEFAKKEGNTLVIVTADHAHASQIVAPDTKAPGLTQALNTKDGAVMVMSYGNSEEDSQEHTGSQLRIAAYGPHAANVVGLTDQTDLFYTMKAALGLK
B2: 1XBAP: bacterial alkaline phosphatase fusion protein containing the traditional FLAG epitope (DYKDDDDK), expressed in E. coli and purified (protein)
chain: DYKDDDDKMPVLENRAAQGDITAPGGARRLTGDQTAALRDSLSDKPAKNIILLIGDGMGDSEITAARNYAEGAGGFFKGIDALPLTGQYTHYALNKKTGKPDYVTDSAASATAWSTGVKTYNGALGVDIHEKDHPTILEMAKAAGLATGNVSTAELQDATPAALVAHVTSRKCYGPSATSEKCPGNALEKGGKGSITEQLLNARADVTLGGGAKTFAETATAGEWQGKTLREQAQARGYQLVSDAASLNSVTEANQQKPLLGLFADGNMPVRWLGPKATYHGNIDKPAVTCTPNPQRNDSVPTLAQMTDKAIELLSKNEKGFFLQVEGASIDKQDHAANPCGQIGETVDLDEAVQRALEFAKKEGNTLVIVTADHAHASQIVAPDTKAPGLTQALNTKDGAVMVMSYGNSEEDSQEHTGSQLRIAAYGPHAANVVGLTDQTDLFYTMKAALGLK

Columns and labels:
[1] = target: 3XFLAG-BAP (bacterial alkaline phosphatase with the triple FLAG sequence at the N-terminus) (E. coli) [phosphatase: P00634]; test: ELISA
[2] = target: 3XFLAG-BAP (bacterial alkaline phosphatase with the triple FLAG sequence at the N-terminus) (E. coli) [phosphatase: P00634]; test: western blot, M2 at 10 ug/ml, chemiluminescence
[3] = target: 3XFLAG-BAP (bacterial alkaline phosphatase with the triple FLAG sequence at the N-terminus) (E. coli) [phosphatase: P00634]; test: dot blot
[4] = target: 3XFLAG-BAP (bacterial alkaline phosphatase with the triple FLAG sequence at the N-terminus) (E. coli) [phosphatase: P00634]; test: western blot, M2 at 10 ug/ml, chemiluminescence, longer exposure
M2 antiFLAG antibody = test: Western blot of purified FLAG-BAP probed with M2 anti-FLAG antibody, chemiluminescent detection; type: binding
Procedure: E. coli BL21 (DE3) were transformed with the expression plasmid containing the triple FLAG BAP construct made according to the methods of Example 1. Cells were grown in terrific broth containing 100 μg/ml ampicillin at 37° C. with agitation. The culture was grown to an OD600=4.0 and then induced with IPTG at a final concentration of 1 mM. The cell culture was grown for an additional 3 hours at 37° C. and then harvested by centrifugation. The cell pellet was resuspended in 50 mM Tris-HCl. pH 8.0 and the cells disrupted by sonication and cellular debris removed by centrifugation. The supernatant was applied to M2 affinity gel was equilibrated with 50 mM Tris-HCI pH 8.0, 150 mM NaCl (TBS). The resin was washed with 20 bed volumes of TBS and then the triple FLAG BAP was eluted with five column volumes of 0.1 M Glycine pH 3.5.
The eluted protein was pooled and adjusted to pH 7.5 with 1.0 M Tris-HCl pH 8.0. Protein content was determined by both Bradford and by absorbance using ε280=0.7ml/mg.
Purified 3XFLAG-BAP and N-BAP were diluted with to 2X Laemlli buffer, boiled for five minutes and then placed on ice. Samples were resolved on a 15% SDS-PAGE using the method of Laemlli (Laemli, V., Nature, 227:680–685 (1970)) and then transferred to nitrocellulose membranes. The membrane was blocked with phosphate buffered saline containing 3% non-fat dry milk for 1 hour and then rinsed three times in TBS, 0.05% Tween 20 (TBS-T). The membrane was incubated with M2 antibody at a final concentration of 10 μg/ml for 30 minutes in TBS-T and then rinsed three times in TBS-T. The membrane was then incubated for 30 minutes with a goat […] IgG (whole molecule) Horseradish peroxidase(HRP) conjugate diluted 1:10,000 in TBS-T then rinsed three times in TBS-T. The FLAG tagged protein were detected with the HRP conjugates and visualized by chemilumenescent detection using ECL (Amersham) and Kodak X-Omat MR film according to manufacturer's directions with exposures from 1 to 30 minutes.

FLAG M2 antibody = test: Isothermal titration calorimetry of M2 antibody binding to FLAG epitopes; details: 25° C., PBS containing 0.05% sodium azide, for 3XFLAG system r>1000, accurate Ka can not be determined, in M-1 (unit assumed)
Procedure: Thermodynamic analysis of the M2 antibody binding to the FLAG epitopes was measured by isothermal titration calorimetry using an OMEGA calorimeter (Microcal). All samples were dialyzed against PBS containing 0.05% sodium azide and degassed prior to the measurements. All measurements were made at 25° C. The concentration of M2 antibody was between 15 and 50 uM depending upon which samples were used. The concentration of the titrants were 605 uM for the 1X BAP, 1110 uM for the 1X FLAG peptide, 400 uM for the 3X BAP, and 580 uM for the 3XFLAG peptide. Injections were carried out every 2.5 to 3.0 minutes which was sufficient for baseline to be achieved with injection volumes ranging from 4 to 11 uL. Injections were carried out over a 4 to 10 second period while stirring at 400 rpm. Data analysis and fitting were performed using the Origin software supplied by MicroCal. The enthalpies were obtained by numerical integration of the data and subtraction of the heats of dilution. Values of Ka, n the number of binding sites were determined by fitting the data to a theoretical curve with only the enthalpy was held constant during the fitting process.

[5] = system: anti-FLAG M2 affinity gel; test: Competitive elution from anti-FLAG M2 affinity gel; type: binding; details: for competitive elution from anti-FLAG M2 affinity gel using 3XFLAG peptide: competitor: 3XFLAG peptide

Molecule | fold increase in detection against single FLAG [1] | amount detected [2] | fold increase in detection limit against single FLAG-BAP [2] | fold increase in detection against single FLAG [3] | amount detected [4] | amount of purified protein detected (M2 antiFLAG antibody; exposures as short as 1 minute) | amount of purified protein detected (M2 antiFLAG antibody; increased exposure time, with increased background) | increase in detection limit compared to the single FLAG-BAP fusion protein (M2 antiFLAG antibody; western blot, M2 antibody, chemiluminescence) | Ka (association constant) (FLAG M2 antibody) | competitive elution from anti-FLAG M2 affinity gel using 3XFLAG peptide [5] | elution from anti-FLAG M2 affinity gel by competition with the original FLAG peptide ([5]; competitor: original FLAG peptide)
anti-FLAG M2 monoclonal antibody | > 10 fold | 500 picograms | 10 fold | > 10 fold | 100 picograms |  |  |  |  |  | 
B1 |  |  |  |  |  | 500 picograms | 100 picograms | 10 fold | 2.09E+08 | can be competitively eluted | cannot be eluted
B2 |  |  |  |  |  |  |  |  | 1.69E+07 | can be competitively eluted | 
